According to the supplement of paper PMC12636428:

Test system: Saccharomyces cerevisiae
Assay: transcriptional activation domain activity (GFP:mCherry ratio, weighted mean of sorted bins, harmonized to initial dataset scale) (arbitrary fluorescence ratio units); higher = stronger transcriptional activation
Details: beta-estradiol 1 µM; induction time 4 h
Procedure, shortened: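 Values are activation activity, found as the read-weighted mean of bin median fluorescence, averaged across barcodes and then mapped linearly onto the initial dataset scale. Barcoded protein tiles fused to an estradiol-inducible synthetic transcription factor were integrated at the URA3 locus of GFP-reporter yeast diploids. Cells were induced for 4 hours at 30 °C with 1 uM beta-estradiol in SC, sorted into 8 bins by GFP:mCherry ratio, and barcode-sequenced, with tiles under 50 reads discarded.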

RGLKNVVVLPAVGERSLASCLAGGDLDGYVIRVLRMLVWFIAFSRDTYDIYIG
transcriptional activation domain activity: 69600

RGLVLCLCLCITLKTAFHMIAVYQPLHPLFTSIDLGHLQPQPFCKLGMILGIM
transcriptional activation domain activity: 65900

RGREDNEDGGRNKRRGGGRFEGRRGRGDRDGNRRRDTRDSRREDKSTANGDAS
transcriptional activation domain activity: < 6570

RGRLPCRYTIWIYSLTRVACLLGVIVCTVGMDVSTSYNCQLWVSSVATLFCVT
transcriptional activation domain activity: 70300

RGRRKWNWTVVLYFACRVTTLAAAVTQMTGFNFTSEISCKTWLILTRIFTNTS
transcriptional activation domain activity: 48200

RGSLREDESQHIATGVEGVHEARDGGRRTSNARAEKTKRVATPVCLSAAHTRG
transcriptional activation domain activity: 28600

RGSVESDLIILAMTCTLDILMHLPRSVFYRRQLDLFLWLLRVIPSVKTTNSLN
transcriptional activation domain activity: 41400

RGSYRLFLIHARLICTIHPLHLPLLYFPAYSMCILYPTPTYITSCSLLAVSFV
transcriptional activation domain activity: 55700

RGTIRPGFLIYFFILFLWVFQIHCIMQIIVNRIALLHVSPTIVRRLKWGIFAI
transcriptional activation domain activity: 71800

RGTIRPGFLIYFFILFLWVFQIHCIMQIIVNRIALLHVSPTIVRRLKWGIFSI
transcriptional activation domain activity: 66300

RGTQKREKRGKEKGEGGTWGRAEGEGKRGGKEKGRREEKRGKKKEAGGAGGRG
transcriptional activation domain activity: 23500

RGVEKLKVEVGCFFWILGEGMIADERLKKFMKDMAHARHVVSSPDVCPNIITY
transcriptional activation domain activity: 40800

RGWMVYIGFLVVFYSAAGFGLSVVNNFTLLIGVYKFVYPITTTLFQLIFTQIF
transcriptional activation domain activity: 50200

RGYDIAKVSNSADLVSWVIAWLLCNNPHIVFIHFGFSYDILVLAAHALHILDC
transcriptional activation domain activity: 38500

RHAIVVKRVIRMSGKGKMSRMSALVVVGDGKGMVGFGEAKDPNAGKAGRKAFQ
transcriptional activation domain activity: 32800

RHASRHASRHASRDASPERRTLRSNLAAAFSGHGRRSRPASPERGGGGGGGAG
transcriptional activation domain activity: 26800

RHHPEIINALVTLIATASTTHVKYTFQGILDHYSYYVLVDGFTLKQLTWMQGI
transcriptional activation domain activity: 62700

RHICLILINIAVGLRFIFYAIDPYCIYNIFNPILNRLLFVTFYWIALLAYVLM
transcriptional activation domain activity: 48100

RHLAEAGLGIAAAGAAKELYDHRRRSRSRSSDSSRSRSRSQSHTGRHVAAAAL
transcriptional activation domain activity: 45800

RHLGSLAYLGNTAVGEFGWGYKMIGGLYAQYLWRSVYWSKQVSLRTRINLSID
transcriptional activation domain activity: 54500

RHLPAVNGGKLTSYAIVGEGSMSPHFVWTAHHAVYVVDGWSLALLFRKVELRY
transcriptional activation domain activity: 48200

RHLSIRLCEIGLIIFAHGLHVHNAYSHLYICLHVVTSRYLYGSHCMVCQLLFY
transcriptional activation domain activity: 75800

RHRRHRRSRSRDREGGRDRGRDGRRDERREERKVERRNEGRDEGRVEGRGRDA
transcriptional activation domain activity: 40000

RHYCYIIVLKSLMYESPRIIGFAWKPEEGHFFNKVMYRTFVGLLMLLQVLLVG
transcriptional activation domain activity: 55900

RIAKRRRKDGEPMLYAPDELKEGRWAPKELIKTMARLRRSIQIVLCLSLLSGF
transcriptional activation domain activity: 77000

RIESHLSEREYKLQTFAEFLRVPDNGSLDIESLDSSLIENTLNSHDVTNQALD
transcriptional activation domain activity: 26700

RIFGLQSPQLVYVESMARVRKLSLSGKILRLLVDRFFVQWEALADGKTGSRWW
transcriptional activation domain activity: 61100

RIILINPLICGATLMLVFAAIGGGWRNVAIEIFVDHGYIRLLFILCTIPQIWL
transcriptional activation domain activity: 56800

RILATQFFYVAAFTFLVFHSAFRAARITLPLYQHPLRIAIPVTLTQMGLHATA
transcriptional activation domain activity: 64600

RIMLQNAILPWFGKHDLRGKVFGCQIIELFHIFGMSFLNWIWSSGLVLATFPP
transcriptional activation domain activity: 56600

RIRDFMQFTLAATKTHYKLLPDILFKADPELCRRVSDANPSCALAALLTLYAH
transcriptional activation domain activity: 77500

RIRKFTVLGATIVEPFMECVLNGVLGAFGFWVFFGVPRLWFFGWHLCYWLLVD
transcriptional activation domain activity: 86000

RISGRVIWSLLICHASWYLNFFIQVGVLSKRLSSPVVLCGVVSFQLLNILLIT
transcriptional activation domain activity: 53000

RISPGFIKKRRSSQTRQDEDHWQRVRELENQSSLYYLPIHEETPFFIDLIPNG
transcriptional activation domain activity: 76200

RIVGESASTHAVCVSLPRDVYQASDGEEDLMGSVPQVLPALVCSCTRASSIVH
transcriptional activation domain activity: 68500

RIVIPIRLVLLVFVTMASYLLFAMIIYACQNEWLYPFLSWDQGPVAVLWYLLL
transcriptional activation domain activity: 42800

RIVRLSFAYTSFIVLPWQQLSEFRGQAYTVGACLEALRLMPNLLRCAFAAYEL
transcriptional activation domain activity: 53600

RIVSSLFFICHGNYYIAFVILSKALDDYVPKIYVLNLNLNHLYLGLLIMCLLL
transcriptional activation domain activity: 35800

RIWLRRLFDIARLLSVGVSNQWSLRMLLDRDAFTPLLIKWLNYYSLRIWTSAV
transcriptional activation domain activity: 68500

RKADPPKEKKKPAVPAAEGAAAPAKKEKKDKKDKEAAAVSVEATEVKEEAAPA
transcriptional activation domain activity: 13900

RKAEEEEEEEAEAKAEKKKPAHGVPFEGTSKSARARARKRAKKEAEAAAATPA
transcriptional activation domain activity: 17800

RKAKATAKEGDKEKSDGGEKLKKASKRSDGEDDKAGQRSSGNKKSRAKKRAED
transcriptional activation domain activity: 16400

RKARQAQGAQGGGGGGAGGPGARGGARGGRVGGERGGRGGGRGGERGRGRGRG
transcriptional activation domain activity: 51400

RKDALLKTSFGGTVFAVRQIGGDRFHGMPFVHLMVIVICLHWTWLRAVIFLGR
transcriptional activation domain activity: 52800

RKDKSKDTKERDVSKRQRGSSRNKGTKAKGTQTKQNEDEEDIVKTRKSKAKDK
transcriptional activation domain activity: 15200

RKDKSRVEDSDSADSDAGHVNGNKAGEGEEGAAKKKRKRRHKKRVPDGEGASV
transcriptional activation domain activity: 29700

RKDRKDRTRKERRDRHDDGRRHRHRRSSRSRSRDRRDRKHDRSRSRDRRKDGD
transcriptional activation domain activity: 9360

RKEAMDFDAELKRRNTHLYCAIIDLEKEMQLVAYLVCACLKKVTFLHKVCVLE
transcriptional activation domain activity: 67900

RKEGGGHGSSSRRDRDRDRDRSDRHRSSKKSSSSNNHDADGTAAAAADASGVH
transcriptional activation domain activity: 18200

RKEKGRNANNAKKGQNKRGGAQKEKAKTKVKSGEVSAEPGMKRGKRGRRRAAA
transcriptional activation domain activity: 48200

RKERKREKESERRERHHRRSQTHSSDEARERHRDGKTKQSRSSDRDPRKTRAR
transcriptional activation domain activity: 30800

RKGEGEGSEPPHPAEPRRLRRSHEACARCRSKKIKCDSKHPRCTACATAGTPC
transcriptional activation domain activity: 23800

RKGSVAKEMIDGRVGRREKGGQGDNRGRKRTRRGSGERKRSDKKGRREKRNRK
transcriptional activation domain activity: 42300

RKHMMAFYFDDILEKVVGTATMDERGVFIRDNERGILWCLLVFRMLCWLILHD
transcriptional activation domain activity: 58000

RKIVNEPREYLHAGNVKDNQGARQKKRRVGRGLGSGLGKTSGRGQKGWKARAP
transcriptional activation domain activity: 37000

RKKREREAEKAEAKRKEERDARRREREKREEEREREREKEREERRRARERDRE
transcriptional activation domain activity: 33900

RKKRERRERLKRGKKGGKKGDEDGAGDGEKGKGGKVKARVVIREDAEGLGGEG
transcriptional activation domain activity: 30900

RKKRRSTRRSRSREESSRRRGDDRRRNHSRDRSTTSRRRSRKSRSPSRDRSSR
transcriptional activation domain activity: 32300

RKKSALEEEERKEKENDELEKKGKRKEEKEEKRRRGKGEKKGKEIRKEKEEKE
transcriptional activation domain activity: 25300

RKLLIALDMRLQNIRSNWKEHHSLTVVIQLTLRLLSLGLSSEVVAGCLDLLKS
transcriptional activation domain activity: 64700

RKLRDVHVPEVPLPLGPDGKADRKKSSLIMVHYVLMHSREVILLCLHRSFFAQ
transcriptional activation domain activity: 65300
